Measurements from US20200289416.

Biological target: T1, MMP-Ac2-26 PA (C16V2A2E2-GGGPQGIWGQGK-AMVSEFLKQAWFIENEEQEYVQTVK-NH2)
T1 chain: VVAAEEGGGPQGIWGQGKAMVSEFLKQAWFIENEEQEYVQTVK

B1: human recombinant MMP2 (protein)
chain: YNFFPRKPKWDKNQITYRIIGYTPDLDPETVDDAFARAFQVWSDVTPLRFSRIHDGEADIMINFGRWEHGDGYPFDGKDGLLAHAFAPGTGVGGDSHFDDDELWTLGEGQVVRVKYGNADGEYCKFPFLFNGKEYNSCTDTGRSDGFLWCSTTYNFEKDGKYGFCPHEALFTMGGNAEGQPCKFPFRFQGTSYDSCTTEGRTDGYRWCGTTEDYDRDKKYGFCPETAMSTVGGNSEGAPCVFPFTFLGNKYESCTSAGRSDGKMWCATTANYDDDRKWGFCPDQGYSLFLVAAHEFGHAMGLEHSQDPGALMAPIYTYTKNFRLSQDDIKGIQELYGASPDIDLGTGPTPTLGPVTPEICKQDIVFDGIAQIRGEIFFFKDRFIWRTVTPRDKPMGPLLVATFWPELPEKIDAVYEAPQEEKAVFFAGNEYWIYSASTLERGYPKPLTSLGLPPDVQRVDAAFNWSKNKKTYIFAGDKFWRYNEVKKKMDPGFPKLIADAWNAIPDNLDAVVDLQGGGHSYFFKGAYYLKLENQSLKSVKFGSIKSDWLGC
Ac2-26 release from PA nanofibers (cleavage assay, LC-MS): The MMP-Ac2-26 PA nanofibers released Ac2-26 after 24 hours of treatment with 40 nM MMP2
